Reference: US9260500B2, “Peptide and use thereof” (Takeda Pharmaceutical Company Limited, priority 2009, dated 2016)
Starred links: 1 amine or outer side, 2 acyl side, 3 side chain; linkers in the order of their positions; H or OH if unused. Non-standard residues stand in square brackets, D forms with d. Primed or numbered codes have the meaning given here. *: point of attachment. Ser(Me)″ = O-methylserine, COC[C@H](N[*:1])C(=O)[*:2]; βHOAla = beta-homoalanine (β-HOAla), D- or L-form; Phe(4-NH2) = Nc1ccc(C[C@H](N)C(=O)O)cc1; Tyr(2-F) = N[C@@H](Cc1ccc(O)cc1F)C(=O)O; Lys(Me2) = CN(C)CCCC[C@H](N)C(=O)O; 4Pal = N[C@@H](Cc1ccncc1)C(=O)O; Cha = N[C@@H](CC1CCCCC1)C(=O)O; dIva = CC[C@@](C)(N)C(=O)O; hSer = N[C@@H](CCO)C(=O)O; Isobutyryl = CC(C)C(=O)*; Iva = CC[C@](C)(N)C(=O)O; NMeA = CN[C@@H](C)C(=O)O; Abu = CC[C@H](N)C(=O)O; Aib = CC(C)(N)C(=O)O; Bz = O=C(c1ccccc1)*

What was measured:
human Y2 receptor [1] = molecular target: T1, human Y2 receptor (Homo sapiens, UniProt P49146); test: Receptor Binding Assay (RBA) for Human Y2, [125I]-PYY displacement on hY2R/CHO membrane fraction; conditions: IC50 of test compound/IC50 of PYY(3-36) (PYY(3-36) taken as 1)
T1 construct: expressed in transfected cells; membrane fraction
T1 sequence (P49146 1-381): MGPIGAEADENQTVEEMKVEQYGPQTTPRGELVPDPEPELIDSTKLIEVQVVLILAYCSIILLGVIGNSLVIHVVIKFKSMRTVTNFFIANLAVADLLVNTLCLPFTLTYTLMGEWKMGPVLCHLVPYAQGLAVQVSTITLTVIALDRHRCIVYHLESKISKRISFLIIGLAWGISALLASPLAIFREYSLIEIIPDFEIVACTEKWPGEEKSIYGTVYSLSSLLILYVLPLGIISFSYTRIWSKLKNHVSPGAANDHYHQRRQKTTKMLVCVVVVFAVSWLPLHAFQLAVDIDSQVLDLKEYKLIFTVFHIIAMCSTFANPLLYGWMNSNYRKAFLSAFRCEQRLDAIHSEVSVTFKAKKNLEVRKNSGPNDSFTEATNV
In short: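 hY2R stably expressed in CHO/dhfr− cells; membrane fraction prepared from cells disrupted in 10 mM NaHCO3, 5 mM EDTA buffer with protease inhibitors. Binding read as displacement of [125I]-PYY.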

human Y2 receptor [2] = molecular target: T1, human Y2 receptor; test: Human Y2 Receptor G Protein Binding Assay (GBA), [35S]GTPγS; format: biochemical; conditions: EC50 of test compound/EC50 of PYY(3-36) (PYY3-36 taken as 1), hY2R/CHO membrane fraction
In short: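 Agonism measured as [35S]GTPγS binding, read by GF/C filtration and scintillation counting after 120 min at room temperature, using human Y2 membranes at 1 μg protein/mL in pH 7.4 Tris/MgCl2/NaCl/GDP buffer. Compound serially diluted 100 μM–1 nM; EC50 normalized to PYY(3-36) (ratio = compound/PYY).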

Substance	RBA IC50 Ratio (human Y2 receptor [1])	GBA EC50 Ratio (human Y2 receptor [2])
Benzoyl-[Cha27,36, Ile28, Pya(4)31]-PYY(25-36) (Bz-RH[Cha]INL[4Pal]TRQR[Cha]-NH2; SMILES CC[C@H](C)[C@H](NC(=O)[C@H](CC1CCCCC1)NC(=O)[C@H](Cc1c[nH]cn1)NC(=O)[C@H](CCCNC(=N)N)NC(=O)c1ccccc1)C(=O)N[C@@H](CC(N)=O)C(=O)N[C@@H](CC(C)C)C(=O)N[C@@H](Cc1ccncc1)C(=O)N[C@H](C(=O)N[C@@H](CCCNC(=N)N)C(=O)N[C@@H](CCC(N)=O)C(=O)N[C@@H](CCCNC(=N)N)C(=O)N[C@@H](CC1CCCCC1)C(N)=O)[C@@H](C)O) [compound No. 71]	7.6	8.5
Ac-[D-Pro24, D-Iva25, Cha27,28,36, Aib31]-PYY(23-36) (Ac-S[dP][dIva]H[Cha][Cha]NL[Aib]TRQR[Cha]-NH2; SMILES CC[C@@](C)(NC(=O)[C@H]1CCCN1C(=O)[C@H](CO)NC(C)=O)C(=O)N[C@@H](Cc1c[nH]cn1)C(=O)N[C@@H](CC1CCCCC1)C(=O)N[C@@H](CC1CCCCC1)C(=O)N[C@@H](CC(N)=O)C(=O)N[C@@H](CC(C)C)C(=O)NC(C)(C)C(=O)N[C@H](C(=O)N[C@@H](CCCNC(=N)N)C(=O)N[C@@H](CCC(N)=O)C(=O)N[C@@H](CCCNC(=N)N)C(=O)N[C@@H](CC1CCCCC1)C(N)=O)[C@@H](C)O) [compound No. 182]	14	11
Benzoyl-[Cha27,36, Ile28, Phe(4NH2)31]-PYY(25-36) (Bz-RH[Cha]INL[Phe(4-NH2)]TRQR[Cha]-NH2; SMILES CC[C@H](C)[C@H](NC(=O)[C@H](CC1CCCCC1)NC(=O)[C@H](Cc1c[nH]cn1)NC(=O)[C@H](CCCNC(=N)N)NC(=O)c1ccccc1)C(=O)N[C@@H](CC(N)=O)C(=O)N[C@@H](CC(C)C)C(=O)N[C@@H](Cc1ccc(N)cc1)C(=O)N[C@H](C(=O)N[C@@H](CCCNC(=N)N)C(=O)N[C@@H](CCC(N)=O)C(=O)N[C@@H](CCCNC(=N)N)C(=O)N[C@@H](CC1CCCCC1)C(N)=O)[C@@H](C)O) [compound No. 72]	5.0	5.4
Benzoyl-[Cha27,28,36, Aib31]-PYY(25-36) (Bz-RH[Cha][Cha]NL[Aib]TRQR[Cha]-NH2; SMILES CC(C)C[C@H](NC(=O)[C@H](CC(N)=O)NC(=O)[C@H](CC1CCCCC1)NC(=O)[C@H](CC1CCCCC1)NC(=O)[C@H](Cc1c[nH]cn1)NC(=O)[C@H](CCCNC(=N)N)NC(=O)c1ccccc1)C(=O)NC(C)(C)C(=O)N[C@H](C(=O)N[C@@H](CCCNC(=N)N)C(=O)N[C@@H](CCC(N)=O)C(=O)N[C@@H](CCCNC(=N)N)C(=O)N[C@@H](CC1CCCCC1)C(N)=O)[C@@H](C)O) [compound No. 64]	28	18
Ac-[D-Hyp24, Pya(4)26, Cha27,36, Aib28,31, Lys30]-PYY(23-36) [compound No. 207]	1.1	0.86
Ac-[D-Pro24, Cha27,28,36, D-Iva29, Aib31]-PYY(23-36) (Ac-S[dP]RH[Cha][Cha][dIva]L[Aib]TRQR[Cha]-NH2; SMILES CC[C@@](C)(NC(=O)[C@H](CC1CCCCC1)NC(=O)[C@H](CC1CCCCC1)NC(=O)[C@H](Cc1c[nH]cn1)NC(=O)[C@H](CCCNC(=N)N)NC(=O)[C@H]1CCCN1C(=O)[C@H](CO)NC(C)=O)C(=O)N[C@@H](CC(C)C)C(=O)NC(C)(C)C(=O)N[C@H](C(=O)N[C@@H](CCCNC(=N)N)C(=O)N[C@@H](CCC(N)=O)C(=O)N[C@@H](CCCNC(=N)N)C(=O)N[C@@H](CC1CCCCC1)C(N)=O)[C@@H](C)O) [compound No. 179]	71	37
Ac-[D-Pro24, Cha27,28,36, Lys(Me2)30, Aib31]-PYY(23-36) (Ac-S[dP]RH[Cha][Cha]N[Lys(Me2)][Aib]TRQR[Cha]-NH2; SMILES CC(=O)N[C@@H](CO)C(=O)N1CCC[C@@H]1C(=O)N[C@@H](CCCNC(=N)N)C(=O)N[C@@H](Cc1c[nH]cn1)C(=O)N[C@@H](CC1CCCCC1)C(=O)N[C@@H](CC1CCCCC1)C(=O)N[C@@H](CC(N)=O)C(=O)N[C@@H](CCCCN(C)C)C(=O)NC(C)(C)C(=O)N[C@H](C(=O)N[C@@H](CCCNC(=N)N)C(=O)N[C@@H](CCC(N)=O)C(=O)N[C@@H](CCCNC(=N)N)C(=O)N[C@@H](CC1CCCCC1)C(N)=O)[C@@H](C)O) [compound No. 166]	0.8	0.7
Isobutanoyl-[Abu26, Cha27,28, Aib31, Tyr(2F)36]-PYY(25-36) (Isobutyryl-R[Abu][Cha][Cha]NL[Aib]TRQR[Tyr(2-F)]-NH2; SMILES CC[C@H](NC(=O)[C@H](CCCNC(=N)N)NC(=O)C(C)C)C(=O)N[C@@H](CC1CCCCC1)C(=O)N[C@@H](CC1CCCCC1)C(=O)N[C@@H](CC(N)=O)C(=O)N[C@@H](CC(C)C)C(=O)NC(C)(C)C(=O)N[C@H](C(=O)N[C@@H](CCCNC(=N)N)C(=O)N[C@@H](CCC(N)=O)C(=O)N[C@@H](CCCNC(=N)N)C(=O)N[C@@H](Cc1ccc(O)cc1F)C(N)=O)[C@@H](C)O) [compound No. 86]	19	11
Ac-[D-Ser23, MeAla24, Cha27,28,36, Aib31]-PYY(23-36) (Ac-[dS][NMeA]RH[Cha][Cha]NL[Aib]TRQR[Cha]-NH2; SMILES CC(=O)N[C@H](CO)C(=O)N(C)[C@@H](C)C(=O)N[C@@H](CCCNC(=N)N)C(=O)N[C@@H](Cc1c[nH]cn1)C(=O)N[C@@H](CC1CCCCC1)C(=O)N[C@@H](CC1CCCCC1)C(=O)N[C@@H](CC(N)=O)C(=O)N[C@@H](CC(C)C)C(=O)NC(C)(C)C(=O)N[C@H](C(=O)N[C@@H](CCCNC(=N)N)C(=O)N[C@@H](CCC(N)=O)C(=O)N[C@@H](CCCNC(=N)N)C(=O)N[C@@H](CC1CCCCC1)C(N)=O)[C@@H](C)O) [compound No. 109]	6.1	5.1

Continued, values first:

RBA IC50 Ratio (human Y2 receptor [1])	GBA EC50 Ratio (human Y2 receptor [2])	Substance
13	17	Ac-[Iva23, D-Pro24, Cha27,28,36, Aib31]-PYY(23-36) (Ac-[Iva][dP]RH[Cha][Cha]NL[Aib]TRQR[Cha]-NH2; SMILES CC[C@](C)(NC(C)=O)C(=O)N1CCC[C@@H]1C(=O)N[C@@H](CCCNC(=N)N)C(=O)N[C@@H](Cc1c[nH]cn1)C(=O)N[C@@H](CC1CCCCC1)C(=O)N[C@@H](CC1CCCCC1)C(=O)N[C@@H](CC(N)=O)C(=O)N[C@@H](CC(C)C)C(=O)NC(C)(C)C(=O)N[C@H](C(=O)N[C@@H](CCCNC(=N)N)C(=O)N[C@@H](CCC(N)=O)C(=O)N[C@@H](CCCNC(=N)N)C(=O)N[C@@H](CC1CCCCC1)C(N)=O)[C@@H](C)O) [compound No. 178]
2.7	1.9	Ac-[Glu23, D-Pro24, Pya(4)26, Cha27,36, Aib28,31, Lys30]-PYY(23-36) (Ac-E[dP]R[4Pal][Cha][Aib]NK[Aib]TRQR[Cha]-NH2; SMILES CC(=O)N[C@@H](CCC(=O)O)C(=O)N1CCC[C@@H]1C(=O)N[C@@H](CCCNC(=N)N)C(=O)N[C@@H](Cc1ccncc1)C(=O)N[C@@H](CC1CCCCC1)C(=O)NC(C)(C)C(=O)N[C@@H](CC(N)=O)C(=O)N[C@@H](CCCCN)C(=O)NC(C)(C)C(=O)N[C@H](C(=O)N[C@@H](CCCNC(=N)N)C(=O)N[C@@H](CCC(N)=O)C(=O)N[C@@H](CCCNC(=N)N)C(=O)N[C@@H](CC1CCCCC1)C(N)=O)[C@@H](C)O) [compound No. 209]
18	8.7	Benzoyl-[Ser(Me)26, Cha27,28,36, Aib31]-PYY(25-36) (Bz-R[Ser(Me)″][Cha][Cha]NL[Aib]TRQR[Cha]-NH2; SMILES COC[C@H](NC(=O)[C@H](CCCNC(=N)N)NC(=O)c1ccccc1)C(=O)N[C@@H](CC1CCCCC1)C(=O)N[C@@H](CC1CCCCC1)C(=O)N[C@@H](CC(N)=O)C(=O)N[C@@H](CC(C)C)C(=O)NC(C)(C)C(=O)N[C@H](C(=O)N[C@@H](CCCNC(=N)N)C(=O)N[C@@H](CCC(N)=O)C(=O)N[C@@H](CCCNC(=N)N)C(=O)N[C@@H](CC1CCCCC1)C(N)=O)[C@@H](C)O) [compound No. 98]
2.4	2.8	Ac-[β-HOAla24, Pya(4)26, Cha27,36, Aib28,31, Lys30]-PYY(23-36) [compound No. 244] (Ac-S[βHOAla]R[4Pal][Cha][Aib]NK[Aib]TRQR[Cha]-NH2; also: former peak, β-HOAla D/L configuration not assigned)
2.5	1.6	Ac-[Hse23, D-Pro24, Cha27,28,36, Aib31]-PYY(23-36) (Ac-[hSer][dP]RH[Cha][Cha]NL[Aib]TRQR[Cha]-NH2; SMILES CC(=O)N[C@@H](CCO)C(=O)N1CCC[C@@H]1C(=O)N[C@@H](CCCNC(=N)N)C(=O)N[C@@H](Cc1c[nH]cn1)C(=O)N[C@@H](CC1CCCCC1)C(=O)N[C@@H](CC1CCCCC1)C(=O)N[C@@H](CC(N)=O)C(=O)N[C@@H](CC(C)C)C(=O)NC(C)(C)C(=O)N[C@H](C(=O)N[C@@H](CCCNC(=N)N)C(=O)N[C@@H](CCC(N)=O)C(=O)N[C@@H](CCCNC(=N)N)C(=O)N[C@@H](CC1CCCCC1)C(N)=O)[C@@H](C)O) [compound No. 157]
